Experimental data reported in patent US20100292153A1 (US Dept. of Health and Human Services, published 2010).

Biological target: T1, TRAF2 (untagged) (UniProt Q12933 1-501, limits assumed)
T1 construct: Negative control
T1 sequence (looked up): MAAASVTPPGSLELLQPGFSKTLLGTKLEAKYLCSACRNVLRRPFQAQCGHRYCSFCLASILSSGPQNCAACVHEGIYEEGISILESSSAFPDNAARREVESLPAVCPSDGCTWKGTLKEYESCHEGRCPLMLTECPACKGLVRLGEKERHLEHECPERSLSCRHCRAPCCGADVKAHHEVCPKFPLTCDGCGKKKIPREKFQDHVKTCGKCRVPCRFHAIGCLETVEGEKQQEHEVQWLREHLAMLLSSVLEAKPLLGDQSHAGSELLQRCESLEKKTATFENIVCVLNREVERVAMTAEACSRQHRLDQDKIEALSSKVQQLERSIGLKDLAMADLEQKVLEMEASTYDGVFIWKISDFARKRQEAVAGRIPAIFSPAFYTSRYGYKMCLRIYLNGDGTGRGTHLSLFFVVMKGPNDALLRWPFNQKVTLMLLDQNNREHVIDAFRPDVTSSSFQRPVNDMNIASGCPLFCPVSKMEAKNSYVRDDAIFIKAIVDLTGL
Test: co-immunoprecipitation from transfected HEK293 cells (anti-FLAG beads, anti-TRAF2 immunoblot)
Protocol: Whole cell lysates were prepared 48 hrs after the transfection and were incubated with anti-FLAG conjugated beads (Sigma) overnight.

- binding result: no binding
B1: FLAG-tagged human IRF4 (other, UniProt Q15306 1-451, looked up)
chain: MNLEGGGRGGEFGMSAVSCGNGKLRQWLIDQIDSGKYPGLVWENEEKSIFRIPWKHAGKQDYNREEDAALFKAWALFKGKFREGIDKPDPPTWKTRLRCALNKSNDFEELVERSQLDISDPYKVYRIVPEGAKKGAKQLTLEDPQMSMSHPYTMTTPYPSLPAQQVHNYMMPPLDRSWRDYVPDQPHPEIPYQCPMTFGPRGHHWQGPACENGCQVTGTFYACAPPESQAPGVPTEPSIRSAEALAFSDCRLHICLYYREILVKELTTSSPEGCRISHGHTYDASNLDQVLFPYPEDNGQRKNIEKLLSHLERGVVLWMAPDGLYAKRLCQSRIYWDGPLALCNDRPNKLERDQTCKLFDTQQFLSELQAFAHHGRSLPRFQVTLCFGEEFPDPQRQRKLITAHVEPLLARQLYYFAQQNSGHFLRGYDLPEHISNPEDYHRSIRHSSIQE
notes: Expressed by transfection in HEK293 cells; pulled down from whole cell lysates with anti-FLAG beads; it is entered under this molecule; also called IFN-regulatory factor 4; FLAG-tagged IRF4; not shown: FLAG tag
